Measurements reported in patent publication US20230272067A1 (published 2023).
Substitutions are numbered along the chain they refer to. In names and notes the source's numbering stands. Read-outs that look alike come from different tables or passages of the source.

T1: extracellular domain (ECD) of mouse TIGIT (mouse, UniProt P86176 29-148, biotinylated (site not stated))
T1 chain: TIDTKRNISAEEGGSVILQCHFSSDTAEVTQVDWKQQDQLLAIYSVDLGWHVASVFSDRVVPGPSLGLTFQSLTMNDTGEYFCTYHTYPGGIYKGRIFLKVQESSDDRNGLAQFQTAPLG

T2: extracellular domain (ECD) of human TIGIT (human, UniProt Q495A1 22-141, biotinylated (site not stated))
T2 chain: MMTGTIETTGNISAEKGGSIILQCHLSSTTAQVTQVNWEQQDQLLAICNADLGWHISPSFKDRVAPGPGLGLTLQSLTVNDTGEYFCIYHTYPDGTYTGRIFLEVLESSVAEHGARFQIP

B1: T4M (antibody, V domains shown)
VH: QVQLQQWGAGLLKPSETLSLTCAVYGGSFNDYYWTWIRQAPGKGLEWIGEITHSGSADYNPSLKSRVTISVDTSKNQFSLKLRSVTAADTAVYYCARGLKLFRWKKTTVTTFPPYYYGMDVWGQGTTVTVSS
VL: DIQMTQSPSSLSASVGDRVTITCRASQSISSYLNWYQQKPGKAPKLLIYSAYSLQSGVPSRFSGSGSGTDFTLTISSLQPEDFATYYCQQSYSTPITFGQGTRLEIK
B2: CS19ME3-23 (antibody, V domains shown)
VH: EVQLLESGGGLVQPGGSLRLSCAASGFTFSSYAMHWVRQAPGKGLEWVAVISYDGSNKYYADSVKGRFTISRDNSKNTLYLQMNSLRAEDTAVYYCATLEGGGRYYDFWSADYWGQGTLVTVSS
VL: QSALTQPRSVSGSPGQSVTISCTGTSSDVGGYNFVSWYQQHPGKAPKLLIYAVSKRPSGVPDRFSGSKSGNTASLTISGLQAEDEADYYCSSYSSESTRVVFGGGTKLTVL
B3: CS19ME3-30-N (antibody, V domains shown)
VH: B2 VH with E1Q, L5V, L11V, G16R
VL: B2 VL with K55N

Key:
[1] = target: T1, extracellular domain (ECD) of mouse …; test: SPR (Biacore T200, multi-cycle)
[2] = target: T2, extracellular domain (ECD) of human …; test: SPR (Biacore T200, multi-cycle)
[3] = target: T1, extracellular domain (ECD) of mouse …; test: SPR (Biacore T200, multi-cycle)
[4] = target: T2, extracellular domain (ECD) of human …; test: SPR (Biacore T200, multi-cycle)
[5] = target: T2, extracellular domain (ECD) of human …; test: competition ELISA; competition with hCD112
[6] = target: T2, extracellular domain (ECD) of human …; test: competition ELISA; competition with hCD155
[7] = target: T1, extracellular domain (ECD) of mouse …; test: competition ELISA; competition with mCD155

| Binder | Kd [1] [nM] | Kd [2] [nM] | Kd [3] [nM] | Kd [4] [nM] | IC50 [5] [µg/mL] | IC50 [6] [µg/mL] | IC50 [7] [µg/mL] |
| --- | --- | --- | --- | --- | --- | --- | --- |
| B1 | 2.74 | 8.75 | – | – | – | – | – |
| B2 | – | – | 21.6 | 3.49 | – | – | – |
| B3 | – | – | 2.85 | 3.36 | 0.9 | 1.18 | 0.67 |
